How the values were obtained:
[1] = target: SARS-CoV-2 WT NTD with the native signal peptide (SARS-CoV-2, Wuhan-Hu-1 (wild type), UniProt P0DTC2); experiment: ELISA; details: both partners purified
[2] = target: SARS-CoV-2 S N-terminal domain (NTD), wild type, with the native signal peptide (SARS-CoV-2, Wuhan-Hu-1 (wild type), UniProt P0DTC2); experiment: ELISA; details: both partners purified

B1: S2L20 mAb (antibody, V domains shown)
VH: EVQLVESGGGVVQPGGSLRLSCAASGFTFNSYGMHWVRQAPGKGLEWVAFIRYDGGNKYYADSVKGRFTISRDNSKNTLYLQMKSLRAEDTAVYYCANLKDSRYSGSYYDYWGQGTLVTVS
VL: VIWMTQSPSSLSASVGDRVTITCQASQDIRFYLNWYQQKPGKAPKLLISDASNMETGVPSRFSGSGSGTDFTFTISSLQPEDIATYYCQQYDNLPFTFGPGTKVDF
**Q.** Does B1 bind [1]?
**A.** Result: binds

B2: S2X333 mAb (NTD-specific, neutralizing, antigenic site i) (antibody, V domains shown)
VH: VQLVESGGGVVQPGRSLRLSCAASGFTFSNYGMHWVRQAPGKGLEWVAVIWYDGSNKFYADSVKGRFTISRDNSKNSLYLQMNSLRAEDTAVYFCARAFPDSSSWSGFTIDYWGQGTLVTV
VL: YELTQPPSVSTARITCGGNNIERKSVHWCQQKPGQAPALVVYDDSDRPSGIPERFSGSNSGNTATLTISRVEAGDEADYYCQVWDSGSDQVIFGGGTKLT
**Q.** Does B2 bind [2]?
**A.** Result: binds

Source: article PMC9835956 (Science (New York, N.y.), 2021)
